B1: Nuclear factor of activated T-cells 5 (Homo sapiens), O94916-1 (parent)
chain: MPSDFISLLSADLDLESPKSLYSRESVYDLLPKELQLPPSRETSVASMSQTSGGEAGSPPPAVVAADASSAPSSSSMGGACSSFTTSSSPTIYSTSVTDSKAMQVESCSSAVGVSNRGVSEKQLTSNTVQQHPSTPKRHTVLYISPPPEDLLDNSRMSCQDEGCGLESEQSCSMWMEDSPSNFSNMSTSSYNDNTEVPRKSRKRNPKQRPGVKRRDCEESNMDIFDADSAKAPHYVLSQLTTDNKGNSKAGNGTLENQKGTGVKKSPMLCGQYPVKSEGKELKIVVQPETQHRARYLTEGSRGSVKDRTQQGFPTVKLEGHNEPVVLQVFVGNDSGRVKPHGFYQACRVTGRNTTPCKEVDIEGTTVIEVGLDPSNNMTLAVDCVGILKLRNADVEARIGIAGSKKKSTRARLVFRVNIMRKDGSTLTLQTPSSPILCTQPAGVPEILKKSLHSCSVKGEEEVFLIGKNFLKGTKVIFQENVSDENSWKSEAEIDMELFHQNHLIVKVPPYHDQHITLPVSVGIYVVTNAGRSHDVQPFTYTPDPAAAGALNVNVKKEISSPARPCSFEEAMKAMKTTGCNLDKVNIIPNALMTPLIPSSMIKSEDVTPMEVTAEKRSSTIFKTTKSVGSTQQTLENISNIAGNGSFSSPSSSHLPSENEKQQQIQPKAYNPETLTTIQTQDISQPGTFPAVSASSQLPNSDALLQQATQFQTRETQSREILQSDGTVVNLSQLTEASQQQQQSPLQEQAQTLQQQISSNIFPSPNSVSQLQNTIQQLQAGSFTGSTASGSSGSVDLVQQVLEAQQQLSSVLFSAPDGNENVQEQLSADIFQQVSQIQSGVSPGMFSSTEPTVHTRPDNLLPGRAESVHPQSENTLSNQQQQQQQQQQVMESSAAMVMEMQQSICQAAAQIQSELFPSTASANGNLQQSPVYQQTSHMMSALSTNEDMQMQCELFSSPPAVSGNETSTTTTQQVATPGTTMFQTSSSGDGEETGTQAKQIQNSVFQTMVQMQHSGDNQPQVNLFSSTKSMMSVQNSGTQQQGNGLFQQGNEMMSLQSGNFLQQSSHSQAQLFHPQNPIADAQNLSQETQGSLFHSPNPIVHSQTSTTSSEQMQPPMFHSQSTIAVLQGSSVPQDQQSTNIFLSQSPMNNLQTNTVAQEAFFAAPNSISPLQSTSNSEQQAAFQQQAPISHIQTPMLSQEQAQPPQQGLFQPQVALGSLPPNPMPQSQQGTMFQSQHSIVAMQSNSPSQEQQQQQQQQQQQQQQQQQSILFSNQNTMATMASPKQPPPNMIFNPNQNPMANQEQQNQSIFHQQSNMAPMNQEQQPMQFQSQSTVSSLQNPGPTQSESSQTPLFHSSPQIQLVQGSPSSQEQQVTLFLSPASMSALQTSINQQDMQQSPLYSPQNNMPGIQGATSSPQPQATLFHNTAGGTMNQLQNSPGSSQQTSGMFLFGIQNNCSQLLTSGPATLPDQLMAISQPGQPQNEGQPPVTTLLSQQMPENSPLASSINTNQNIEKIDLLVSLQNQGNNLTGSF
partner: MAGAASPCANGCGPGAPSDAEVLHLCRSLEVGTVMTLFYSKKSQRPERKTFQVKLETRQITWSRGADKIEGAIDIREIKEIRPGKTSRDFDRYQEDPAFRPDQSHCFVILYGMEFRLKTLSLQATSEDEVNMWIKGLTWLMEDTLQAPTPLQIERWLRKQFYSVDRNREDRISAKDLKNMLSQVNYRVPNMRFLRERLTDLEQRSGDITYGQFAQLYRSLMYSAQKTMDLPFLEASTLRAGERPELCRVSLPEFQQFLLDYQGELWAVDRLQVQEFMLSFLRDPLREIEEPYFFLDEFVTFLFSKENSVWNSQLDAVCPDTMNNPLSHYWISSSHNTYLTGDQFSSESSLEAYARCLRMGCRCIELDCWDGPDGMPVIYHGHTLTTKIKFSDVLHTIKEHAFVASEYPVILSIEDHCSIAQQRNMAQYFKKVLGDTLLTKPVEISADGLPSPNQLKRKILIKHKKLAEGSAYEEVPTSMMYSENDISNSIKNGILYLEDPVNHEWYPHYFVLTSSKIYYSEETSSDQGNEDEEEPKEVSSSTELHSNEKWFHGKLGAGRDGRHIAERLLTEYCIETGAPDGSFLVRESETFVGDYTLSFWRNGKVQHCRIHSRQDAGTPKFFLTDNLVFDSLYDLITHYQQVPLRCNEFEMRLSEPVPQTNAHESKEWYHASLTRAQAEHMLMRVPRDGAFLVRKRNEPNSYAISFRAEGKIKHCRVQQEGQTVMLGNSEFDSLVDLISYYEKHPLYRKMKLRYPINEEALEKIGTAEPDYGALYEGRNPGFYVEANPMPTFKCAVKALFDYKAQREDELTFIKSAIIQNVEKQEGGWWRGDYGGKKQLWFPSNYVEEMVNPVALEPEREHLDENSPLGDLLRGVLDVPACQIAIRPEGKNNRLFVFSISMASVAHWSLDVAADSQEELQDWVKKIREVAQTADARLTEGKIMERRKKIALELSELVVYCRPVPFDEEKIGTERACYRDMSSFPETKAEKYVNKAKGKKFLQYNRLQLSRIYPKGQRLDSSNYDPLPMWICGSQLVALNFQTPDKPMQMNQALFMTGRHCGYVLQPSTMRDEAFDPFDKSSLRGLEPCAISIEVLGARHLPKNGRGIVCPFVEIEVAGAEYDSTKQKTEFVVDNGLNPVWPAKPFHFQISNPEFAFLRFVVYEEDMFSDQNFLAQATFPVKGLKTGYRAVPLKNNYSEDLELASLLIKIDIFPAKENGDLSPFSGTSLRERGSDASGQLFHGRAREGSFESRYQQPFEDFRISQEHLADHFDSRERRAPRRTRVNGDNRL

In the assay the parent is B1. The note with it: with plcg1_human PLCG1, P19174.
As for Y143A, the “effect of a mutation on the interaction” value is recorded as “decreasing interaction”.

These data come from IntAct's records for PubMed 20080774.
